Results: patent US9850300B2, “Compositions and methods relating to inhibiting cancer cell growth and/or proliferation” (The Regents of the University of Michigan, priority 2013, dated 2017)

Assays:
[1] = system: SKOV3, OVCAR3, OVCAR8, and primary ovarian tumor cells; assay: EGFL6 treatment of ovarian cancer cells, total cell number; assay type: cell-based
From the text: EGFL6 was next expressed in HEK293 cells, NIH3T3 cells, and SKOV3 ovarian cancer cells. Western blot analysis confirmed secretion of EGLF6 in both transient and stable transfectants (FIG. 2Ai, 2D) from all three cell lines. EGFL6 protein was purified to >95% purity (FIG. 2Aii) and treated ovarian cancer cells with either purified EGFL6, supernatant from EGFL6-expressing HEK293 cells, or supernatant from control transfected HEK293 cells. Purified fusion protein and supernatant from EGFL6 transfected cells had similar effects. EGFL6 treatment of SKOV3, OVCAR3, OVCAR8, and primary ovarian tumor cells was associated with a 30-40% increase in total cell number (FIG. 2B).
SKOV3, A2008, and A2780 were maintained in RPMI-1640, supplemented with 10% FBS with 1% Penicillin/Streptomycin, and cultured in humidified atmosphere of 5% CO2 at 37° C. For all in vitro cell culture experiments, isolated cells were allow to recover overnight following FACS, prior to treatment. Infantile Hemangioma Stem cells were maintained in EBM-2 medium with growth factor supplement cocktails in culture plates coated with fibronectin. For Echistatin and EGFL6 treatment, cells were pretreated with Echistatin (Sigma, 100 nM) for 24 hours prior to EGFL6 treatment. All transfections were performed using FuGene6 reagent (Promega) per company protocol. […]

cellular migration [2] = assay: In vitro scratch test wound healing assay; assay type: cell-based; details: EGFL6 treated cells
ALDH+ and ALDH− cells = assay: Microfluidics device migration of individual cells in an EGFL6 gradient; assay type: cell-based
From the text: EGF factors have been reported to enhance the migration and invasion of various cell populations. The impact of EGFL6 on cellular migration was therefore assessed. […] Finally, a novel microfluidics device was used to determine the impact of EGFL6 on the migration of individual cells. To more specifically assess the impact on ovarian CSC versus progenitors, ALDH+ and ALDH− cells were sorted and loaded into individual channels of a microfluidics device in which migration could be directly monitored. EGFL6 was added to a reservoir at one side of the device to create a gradient of expression. EGFL6 had no impact on the migration of ALDH(−) cells.

cellular migration [3] = assay: Transwell migration assay with EGFL6 protein as chemoattractant; assay type: cell-based
[4] = system: primary ALDH+ and ALDH(−) cells; assay: Single cell microfluidic culture, cell division type; assay type: cell-based, human
From the text: For primary cells, it was observed that over 50% of untreated ALDH^(−) cells underwent no division over 5 days, while remaining cells underwent symmetric division. […] 20% of ALDH^+ cells underwent no division. EGFL6 treatment of primary ALDH^+ cells was associated with a 1.9-fold increase in the number of ALDH^+ cells undergoing asymmetric division (FIG. 3Dii). EGFL6 treatment was associated with an increase in total cell numbers (90 EGFL6 treated cells yielded 585 total cells while 82 mock-treated cells yielded 451 cells).
Informed consent was obtained from all patients before tissue procurement. All studies were performed with the approval of the Institutional Review Board of the University of Michigan. All tumors were stage III or IV epithelial ovarian or primary peritoneal cancer. Tumors were mechanically dissected into single-cell suspensions and isolated on a ficoll gradient as previously described (see, e.g., Pulaski, H. L., et al. J Transl Med 7, 49 (2009)). For ascites, cell pellets were collected by centrifugation; red cells were lysed using ACK buffer (Lonza, Hopkinton, Mass.), washed, passed through a 40-μm filter, then passed 4 times through a Standard Hub Pipetting needle to isolate single cells (see, e.g., Silva, I. A., et al. Cancer Res (2011)).

[5] = system: Human ovarian cancer ascites cells; assay: Tumor sphere assay, ALDH+ cell percentages; assay type: cell-based; details: EGFL6 treatment
From the text: It has been shown that aldehyde dehydrogenase enzymatic activity (ALDH) is an excellent marker of ovarian CSCs in SKOV3 cells and primary patient samples (see, e.g., Silva, I. A., et al. Cancer Res (2011); Landen, C. N., Jr., et al. Mol Cancer Ther 9, 3186-3199 (2010); Steg, A. D., et al. Clin Cancer Res 18, 869-881 (2012); Kryczek, I., et al. Int J Cancer 130, 29-39 (2012); Deng, S., et al. PLoS ONE 5, e10277 (2010)). The impact of EGFL6 treatment on the percentage of ALDH^+ CSCs in vitro was next assessed. […] However, given the increase in total cell numbers, the absolute ALDH^+ CSC number remained unchanged (FIG. 3Aiii). […] Human ovarian cancer ascites cells were also treated with EGFL6 in a tumor sphere assay. Once again, treatment with EGLF6 was associated with a reduction in ALDH^+ cell percentages in tumor spheres (FIG. 3B).
Sphere culture was performed as previously described (see, e.g., Silva, I. A., et al. Cancer Res (2011)). Briefly, single cell suspensions were plated in triplicate in ultra-low attachment plates (Corning, Acton, Mass., USA) in serum-free MEBM-2 (Lonza). Cells were plated at the indicated density and from 1,000-10,000 cells/ml in subsequent passage. Sphere formation was assessed 2 weeks after seeding cells.

B1: EGFL6: recombinant EGFL6-flag protein from transfected HEK293 cells, used purified or as 72 hr supernatant (protein)
chain: NAASARHHGLLASARQPGVCHYGTKLACCYGWRRNSKGVCEATCEPGCKFGECVGPNKCRCFPGYTGKTCSQDVNECGMKPRPCQHRCVNTHGSYKCFCLSGHMLMPDATCVNSRTCAMINCQYSCEDTEEGPQCLCPSSGLRLAPNGRDCLDIDECASGKVICPYNRRCVNTFGSYYCKCHIGFELQYISGRYDCIDINECTMDSHTCSHHANCFNTQGSFKCKCKQGYKGNGLRCSAIPENSVKEVLRAPGTIKDRIKKLLAHKNSMKKKAKIKNVTPEPTRTPTPKVNLQPFNYEEIVSRGGNSHGGKKGNEEKMKEGLEDEKREEKALKNDIEERSLRGDVFFPKVNEAGEFGLILVQRKALTSKLEHKDLNISVDCSFNHGICDWKQDREDDFDWNPADRDNAIGFYMAVPALAGHKKDIGRLKLLLPDLQPQSNFCLLFDYRLAGDKVGKLRVFVKNSNNALAWEKTTSEDEKWKTGKIQLYQGTDATKSIIFEAERGKGKTGEIAVDGVLLVSGLCPDSLLSVDD
- increase in total cell number ([1]; EGFL6 treatment vs control supernatant): 30-40%
- total cell numbers ([1]; increasing concentrations of EGFL6): increasing total cell numbers
- increase in the rate of wound closure (cellular migration [2]): 40%
- migration of ALDH(−) cells (ALDH+ and ALDH− cells): no impact
- migration of ALDH+ cells (ALDH+ and ALDH− cells): robust migration
- cellular migration in transwell assay (cellular migration [3]): increased cellular migration
- total cells yielded ([4]; from 90 EGFL6 treated primary cells): 585 total cells
- symmetric divisions of ALDH(−) cells ([4]; primary ALDH(−) cells, 5 days): non-statistically significant increase
- increase in the number of ALDH+ cells undergoing asymmetric division ([4]; primary ALDH+ cells): 1.9 fold
- ALDH+ cell percentages in tumor spheres [5]: reduction
